Results from the nanobody polyreactivity screen of Harvey et al. (2022).

Experiment: yeast display, Sf9 membrane polyspecificity reagent, FACS + sequencing; frameworks hold sequencing errors
Method in brief: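 Using colony PCR, genes from sorted yeast display clones were amplified, then sequenced on MiSeq at 2 × 250 and filtered by CDR length. The clones had been stained with 10% biotinylated, detergent-solubilized Sf9 membrane reagent for 1 hour at 4 °C and sorted by FACS into low and high (top ~1%) gates on anti-HA and streptavidin fluorescence. Polyreactivity labels come from the gate of origin.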

## QVQLVESGGGLVQAGGSLRLSCAASGIIFRGYAMGWYRQAPGKERELVARISITGGRTYYADSVKGRFTISRDNAKNTVYLQMNSLKPEDTAVYYCAAGKYVRTVRYDYWGQGTQVTVSS
  polyreactivity (PSR sort gate): high polyreactivity

## QVQLVESGGGLVQAGGSLRLSCAASGIIFRGYPMGWYRQAPGKERELVARISITGGRTYYADSVKGRFTSSRDNAKNTVELQMNSLKPEDTAVYYCAAGKYVSTVRYDYWGQGTQVTVAS
  polyreactivity (PSR sort gate): high polyreactivity

## QVQLVESGGGLVQAGGSLRLSCAASGIIFRIYAMGWYRQAPGKEREFVAAISGSGDSTYYADSVKGRFTISRDNAKNTVYLQMNSLKPEDTAVYYCAARAIFRQGDRIYDSWGQGTQVTVSS
  polyreactivity (PSR sort gate): high polyreactivity

## QVQLVESGGGLVQAGGSLRLSCAASGIIFRIYAMGWYRQAPGKERELVAAITYIGTSTYYADSVKGRFTISRDNAKNTVYLQMNSLKPEDTAVYFCYFYYVFRSDYWGQGTQVTVSS
  polyreactivity (PSR sort gate): low polyreactivity

## QVQLVESGGGLVQAGGSLRLSCAASGIIFRKYAMGRYRQAPGKERELVAAISSSGGSTYYADSVKGRFTISRDNAKNTVYLQMNSLKPEDTAVYYCAAERQVTNKIFNYWGQGTQVTVSS
  polyreactivity (PSR sort gate): high polyreactivity

## QVQLVESGGGLVQAGGSLRLSCAASGIIFRLYAMGWYRQAPGKERELVAAISSGGSTYADSVKGRFTISRDNAKNTVYFQMNSLKPEDTAVYYCAAGRVWHLYWYNYWGQGTQVTVSS
  polyreactivity (PSR sort gate): high polyreactivity

## QVQLVESGGGLVQAGGSLRLSCAASGIIFRLYAMGWYRQAPGKERELVAAITSRGGSTYYADSVKGRFTISRDNAKNTVYLQKNSLKPEDTAVYYCAARPVYSGYDYWGQGPQVTVSS
  polyreactivity (PSR sort gate): high polyreactivity

## QVQLVESGGGLVQAGGSLRLSCAASGIIFRNYAMGWYRQAPGKERELVATIRYRGGRTYADSVKGRFTISRDNAKNTVYLQMNSLKPEDTAVYYCNTYARYAYLTGRMEYWGQGTQVTVSS
  polyreactivity (PSR sort gate): high polyreactivity

## QVQLVESGGGLVQAGGSLRLSCAASGIIFRPYTMGWYRQAPGKERELVAAISQSGGRTYYADSVKGRFTISRDNAKNTVYLQMNSLKPEDTAVYYCNVLGSYSYYPWPIPGYDYWGQGTQVTVSS
  polyreactivity (PSR sort gate): high polyreactivity

## QVQLVESGGGLVQAGGSLRLSCAASGIIFRQYAMGWYRQAPGKERELVAGISSRGGSTYYADSVKGRFTISRDNAKNTVYLQMNSLKPEDTAVYYCAARYPGYFYHLDYWGQGTQVTVSS
  polyreactivity (PSR sort gate): low polyreactivity

## QVQLVESGGGLVQAGGSLRLSCAASGIIFRRYAMGWYRQAPGKERELVAAITRGGITYYADSVKGRFTISRDNAKNTVYLQMNSLKPEDTAVYYCAATYSGTYSLGRGYDYWGQGTQVTVSS
  polyreactivity (PSR sort gate): low polyreactivity

## QVQLVESGGGLVQAGGSLRLSCAASGIIFRRYAMGWYRQAPGKERELVAVISSGGSTNYADSVKGRFTISRDNAKNTVYLQMYSLKPEDTADYYCAAPSQSRGYYYWGQGTQVTVSS
  polyreactivity (PSR sort gate): high polyreactivity

## QVQLVESGGGLVQAGGSLRLSCAASGIIFRTYAMGCYRQAPGKERELVAAITGSGGITYYADSVKGRFTISRDNAKNTVYLQMNSLKPEDTAVYYCAARGTRDGVQRYGYWGQGTQVTVSS
  polyreactivity (PSR sort gate): high polyreactivity

## QVQLVESGGGLVQAGGSLRLSCAASGIIFRTYAMGWYRQAPGKERELVAAITGRGSNTYYADSVKGRFTISRDNAKNTVYLQMNSLKPEETAVYYCNARYYDYRVALRYDYWGQGTQVTVSS
  polyreactivity (PSR sort gate): high polyreactivity

## QVQLVESGGGLVQAGGSLRLSCAASGIIFRVYTMGWYRQAPGKERELVAGLSSGDSTSYADSVKGRFTISRDNAKNTVYLQMNSLKPEDTAVYYCNAVAYYSYSANFRNAYDYWGQGTQVTVSS
  polyreactivity (PSR sort gate): low polyreactivity

## QVQLVESGGGLVQAGGSLRLSCAASGIIFRYNAMGWSRQAPGKERELVATISKRGGSTRYADSVKGRFTISRDNAKNTVYLQMNSLKPEDTAVYYCAAQRPYYNGYDYWGQGTQVTVSS
  polyreactivity (PSR sort gate): high polyreactivity

## QVQLVESGGGLVQAGGSLRLSCAASGIIFRYNTMGWYRQAPGKERELVAAISKRGGSTYYADSVKGRFTISRDNAKNTVYLQMNSLKPEDTAVYYCAARYYSASYYNYGYWGQGTQVTVSS
  polyreactivity (PSR sort gate): high polyreactivity

## QVQLVESGGGLVQAGGSLRLSCAASGIIFRYYAMGLYRQAPGKERELVAAISQGGGSTYYADSVKGRFTISRDNAKYTVYLPMKTLKPEDTAVYYCNTGRRHGLTQGGDYWGQGTQVTVSS
  polyreactivity (PSR sort gate): high polyreactivity

## QVQLVESGGGLVQAGGSLRLSCAASGIIFRYYAMGWYRQAPGKEREFVAAISSSGVRTYYADSVKGRFTISRDNAKNTVYLQMNSLKPEDTAVYYCAAASRANSYRYNYWGQGTQVTVSS
  polyreactivity (PSR sort gate): high polyreactivity

## QVQLVESGGGLVQAGGSLRLSCAASGIIFRYYAMGWYRQAPGKEREFVAAITWRGTSTYYADSVKGRFTISRDNAKNTVYLQMNSLKPEDTAVYYCATATAFPYYGLDYWGQGNQVTVSS
  polyreactivity (PSR sort gate): high polyreactivity

## QVQLVESGGGLVQAGGSLRLSCAASGIIFRYYAMGWYRQAPGKERELVAAISRGGSTYYADSVKGRFTISRDNAKNTVYLQMNSLKPEDTAVYYCAATSYRRTGYNYWGQGTQVTVSS
  polyreactivity (PSR sort gate): high polyreactivity

## QVQLVESGGGLVQAGGSLRLSCAASGIIFRYYAMGWYRQAPGKERELVAGISYRGGSTYYADSVKGRFTISRDNAKNTVYLQMNSLKPEDTAVYYCAAVVYPRNYWGQGTQVTVSS
  polyreactivity (PSR sort gate): high polyreactivity

## QVQLVESGGGLVQAGGSLRLSCAASGIIFRYYAMGWYRQAPGKERELVASITARSGSTYYADSVKGRFTISRDNAKNTVYLQMNSLKPEDTAVYYCAKSGKPARYYYWGQGTQVTVSS
  polyreactivity (PSR sort gate): high polyreactivity

## QVQLVESGGGLVQAGGSLRLSCAASGIIFRYYAMGWYRQAPGKERELVATITIGGRTNYADSVKGRFTISRDNAKNTVYLQMNCLKPEDTAVYYCASRVYKYGSVYHRYDYWGQGTQVTVSS
  polyreactivity (PSR sort gate): high polyreactivity

## QVQLVESGGGLVQAGGSLRLSCAASGIIFRYYVMGWYRQAPGKERELVAAISWSGGSTYYADSVKGRFTISRDNAKNTVYLQMNSLKPEDTAVYYCAASRGILASEFGYWGQGTQVTVSS
  polyreactivity (PSR sort gate): high polyreactivity

## QVQLVESGGGLVQAGGSLRLSCAASGIIFSGYAMGWYRQAPGKERELVAAISSRGGGTYYADSVKGRFTISRDNAKNTVYLQMNSLKPEDTAVYYCNRVAFTYNYWGQGTQVTVSS
  polyreactivity (PSR sort gate): high polyreactivity

## QVQLVESGGGLVQAGGSLRLSCAASGIIFSGYAMGWYRQAPGKERELVAAITWGGGSTYYADSVKGRFTISRDNAKNTVYLQMNSLKPEDTAVYYCAATWWYEHVRYYSWGQGTQVTVSS
  polyreactivity (PSR sort gate): high polyreactivity

## QVQLVESGGGLVQAGGSLRLSCAASGIIFSIYVMGWYRQAPGKERELVAAISRSGGSTYYADSVKGRFTISRDNAKNTVYLQMNSLKPEDTAVYYCAKKPTSTYQPDSPRWSDYWGQGTQVTVSS
  polyreactivity (PSR sort gate): high polyreactivity

## QVQLVESGGGLVQAGGSLRLSCAASGIIFSKYAMGWYRQAPGKERELVAAISWNGVSTYYADSVKGRFTISRDNAKNTVYLQMNSLKPEDTAVYYCAADTYRSRRISYYWGQGTQVTVSS
  polyreactivity (PSR sort gate): low polyreactivity

## QVQLVESGGGLVQAGGSLRLSCAASGIIFSSYAMGWYRQAPGKERELVAAISRRSGSTYYADSVKGRFTISRDNAKNTVYLQMNSLKPEDTAVYYCNKLPGTPRSLATGDYWGQGTQVTVSS
  polyreactivity (PSR sort gate): high polyreactivity

## QVQLVESGGGLVQAGGSLRLSCAASGIIFSSYAMGWYRQAPGKERELVAAISTSGGRTYYADSVKGRFTISRDNAKNTVYLQMNSLKPKDTAVYYCAARYGYWGQGTQVTVSS
  polyreactivity (PSR sort gate): high polyreactivity

## QVQLVESGGGLVQAGGSLRLSCAASGIIFSTYAMGWYRQAPGKERELVAAISYGGGSTYYADSVKGRFTISRDNEKNTVYLQMNSLKPEDTAVYYCAADSYRAYYYWGQGTQVTVSS
  polyreactivity (PSR sort gate): high polyreactivity
